Assay results from the supplement of paper PMC10126150.
± gives the standard deviation of the averaged measurements.

Each sequence was assayed on ATP (assay: switch fluorescence ratio, 500 uM ATP over buffer (Cy3 cluster intensity, sum of 5 cycles each) (fold (ratio)); higher = stronger signal-on switching upon ATP binding; sequences stand for … in TCGTCGGCAGCGTCAGATGTGTATAAGAGACAGTTTTTTTTTTTTTTTTTTTTTTTTT…TC). Details: aptamer strand: ATP DNA aptamer (quencher-CACCTGGGGGAGTATTGCGGAGGAAGG + anchor), 100 nM annealed; ATP concentration: 500 uM.
Summary of the method: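 Five buffer/ATP imaging cycles were run on Cy3-labelled switching-strand clusters on a modified Illumina MiSeq flow-cell, with NaOH stripping and re-annealing between cycles. In each cycle, clusters annealed to 100 nM quencher-labelled ATP aptamer were imaged in selection buffer, then after 15 min with 500 uM ATP at 22 °C. Per cluster, the fluorescence ratio is summed target-cycle over summed buffer-cycle Cy3 intensity, averaged per switch-domain sequence. Only clusters within 100-1000 RFU were kept.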
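Further: ATP exposure 15 min at 22 °C before imaging.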

| Sequence | switch fluorescence ratio |
| --- | --- |
| GCGGCACATA | 1.09 ± 0.042 |
| GCGGCAGGGA | 0.997 ± 0.049 |
| GCGGCGCTTA | 1.02 ± 0.016 |
| GCGGCGGGTT | 1.04 ± 0.064 |
| GCGGCGGTGC | 1.02 ± 0.031 |
| GCGGCTGATG | 1.02 ± 0.012 |
| GCGGGAATTG | 0.981 ± 0.023 |
| GCGGGAGGTC | 1.03 ± 0.013 |
| GCGGGATGCA | 0.993 ± 0.033 |
| GCGGGCCTGG | 1.01 ± 0.037 |
| GCGGGCTGGA | 1.01 ± 0.044 |
| GCGGGGAAAT | 0.971 ± 0.021 |
| GCGGGGAATT | 1.02 ± 0.026 |
| GCGGGGCTAG | 0.989 ± 0.024 |
| GCGGGGGATC | 1 ± 0.03 |
| GCGGGGGCAA | 1.0292 ± 0.00013 |
| GCGGGGGGAG | 1.02 ± 0.043 |
| GCGGGGGGGT | 1.01 ± 0.038 |
| GCGGGGGGTT | 1.01 ± 0.038 |
| GCGGGGGTG | 1.01 ± 0.013 |
| GCGGGGGTTG | 0.978 ± 0.039 |
| GCGGGGTAGG | 1.015 ± 0.0099 |
| GCGGGGTCGG | 1.0083 ± 0.00048 |
| GCGGGGTCTG | 0.985 ± 0.04 |
| GCGGGGTTGC | 1.03 ± 0.033 |

| Sequence | switch fluorescence ratio |
| --- | --- |
| GCGGGTGGGG | 1.05 ± 0.029 |
| GCGGGTTAAA | 0.991 ± 0.012 |
| GCGGTAAGGG | 1.016 ± 0.004 |
| GCGGTACGCG | 0.953 ± 0.012 |
| GCGGTACGGT | 1.03 ± 0.039 |
| GCGGTAGGG | 1.02 ± 0.0055 |
| GCGGTCAAAT | 1.005 ± 0.0018 |
| GCGGTCCGTT | 0.9614 ± 0.0012 |
| GCGGTGAGGG | 0.993 ± 0.052 |
| GCGGTGGGTG | 0.994 ± 0.023 |
| GCGGTTCAGC | 0.985 ± 0.014 |
| GCGGTTCAGT | 1.0109 ± 0.00081 |
| GCGGTTCGTA | 0.9699 ± 0.0018 |
| GCGGTTTCAT | 0.9984 ± 0.0098 |
| GCGGTTTCCT | 1.02 ± 0.037 |
| GCGTAAAACG | 0.977 ± 0.04 |
| GCGTAAAATT | 0.9737 ± 0.0057 |
| GCGTAAGACC | 1.07 ± 0.06 |
| GCGTAAGCGG | 0.981 ± 0.017 |
| GCGTAAGGAG | 1.06 ± 0.096 |
| GCGTAGGGGG | 0.95 ± 0.046 |
| GCGTATACGC | 1.04 ± 0.041 |
| GCGTATATTA | 0.998 ± 0.036 |
| GCGTATCGCG | 0.985 ± 0.035 |
| GCGTCAGGAT | 1.0442 ± 0.00058 |

| Sequence | switch fluorescence ratio |
| --- | --- |
| GCGTCGAAGG | 0.981 ± 0.047 |
| GCGTGCGGGA | 1.02 ± 0.017 |
| GCGTGGGAGG | 1.018 ± 0.0053 |
| GCGTGGGATA | 1.03 ± 0.038 |
| GCGTGGGCGA | 1.03 ± 0.045 |
| GCGTGGGGCG | 0.996 ± 0.011 |
| GCGTGGTCTG | 0.971 ± 0.04 |
| GCGTGTGTTC | 1.08 ± 0.049 |
| GCGTGTTCGT | 1.031 ± 0.0084 |
| GCGTGTTGTG | 1.02 ± 0.018 |
| GCGTTAAGGA | 0.9835 ± 0.0056 |
| GCGTTACGGT | 1.02 ± 0.0057 |
| GCGTTATCTT | 0.99586 ± 0.00081 |
| GCGTTATTGG | 1.03 ± 0.018 |
| GCGTTCGGGA | 0.984 ± 0.021 |
| GCGTTCTCGC | 0.968 ± 0.016 |
| GCGTTGAGCT | 0.987 ± 0.023 |
| GCGTTGATGA | 1.01 ± 0.019 |
| GCGTTGTGGG | 1.05 ± 0.024 |
| GCGTTTAGAT | 1.02 ± 0.013 |
| GCGTTTATGG | 1 ± 0.02 |
| GCGTTTGAGG | 0.981 ± 0.017 |
| GCGTTTGGG | 1.14 ± 0.15 |
| GCGTTTGGGG | 1.01 ± 0.043 |
| GCGTTTTACT | 1.034 ± 0.0051 |

| Sequence | switch fluorescence ratio |
| --- | --- |
| GCGTTTTTCG | 0.977 ± 0.042 |
| GCTAAAACCG | 1.06 ± 0.052 |
| GCTAAAGGGA | 1.03 ± 0.042 |
| GCTAACCGGG | 1 ± 0.0097 |
| GCTAACTAGG | 1.038 ± 0.0087 |
| GCTAAGGGGC | 1.03 ± 0.018 |
| GCTAAGTCGG | 0.982 ± 0.0085 |
| GCTAAGTTTA | 0.996 ± 0.025 |
| GCTAATTGGG | 1.004 ± 0.0021 |
| GCTACACGAA | 1.04 ± 0.027 |
| GCTACATGGG | 1.02 ± 0.015 |
| GCTACCTGGA | 1.19 ± 0.016 |
| GCTACGCGCT | 1.36 ± 0.021 |
| GCTAGATGTA | 1.02 ± 0.015 |
| GCTAGTGGGG | 0.999 ± 0.018 |
| GCTATAATCG | 1.073 ± 0.0027 |
| GCTATCGGTT | 1.01 ± 0.024 |
| GCTATCTGCC | 1.075 ± 0.01 |
| GCTATGGTTA | 1 ± 0.013 |
| GCTATGTGTA | 0.9748 ± 0.0051 |
| GCTATTGGGG | 0.993 ± 0.014 |
| GCTATTGGTA | 1.01 ± 0.03 |
| GCTATTGTTG | 1.03 ± 0.021 |
| GCTATTTAGT | 1.0108 ± 0.00043 |
| GCTATTTTTG | 0.999 ± 0.04 |
